Data from patent US20230031280A1, “GLP-2 FUSION POLYPEPTIDES AND USES FOR TREATING AND PREVENTING GASTROINTESTINAL CONDITIONS” (SHIRE-NPS PHARMACEUTICALS, INC., priority 2017, published 2023).

Columns and labels:
[1] = Rat pharmacokinetics, subcutaneous dosing; format: in vivo, Sprague-Dawley rats; details: single dose 1 mg/ml
Description: (§1) In the rat, four pharmacokinetic parameters were measured for Gattex® (a GLP-2 peptide having the A2G mutation): CL, Vc, Vt and Q. The same pharmacokinetic parameters were also measured for GLP-2 peptibodies A, B, E, J, K, L, M, O and P. The data is shown in Table 5. Male Sprague-Dawley rats (3 animals per group) were injected subcutaneously into the intra-scapular region of the animal. A singles dose of test article was injected at a dose level of 1 mg/ml. The test articles were formulated in PBS pH 7.4 at a concentration of Blood samples were taken 0.083, 0.167, 0.33, 0.5, 1, 2, 6, 24, 48, 72, 120, 168, 240, and 336 hours post dose. Blood samples were collected into heparinized tubes and centrifuged for 5 minutes at 2000 xg within 10 minutes of collection. 100 μL of plasma were transferred to a 1.51 ml Eppendorf tube containing 2 μL of 50 mM PMSF. After mixing the plasma samples were frozen at −80° C. until analysis. Meso Scale Discovery (MSD) ELISA was undertaken to assay for the concentration of the GLP-2 peptibodies.
A sandwich immunoassay was developed using either an anti-Human IgG1 Fc antibody or an anti-human albumin antibody for capture of the peptibody and a sulfotag labeled anti GLP-2 antibody for detection.

[2] = Rat pharmacokinetics, intravenous dosing; format: in vivo, Sprague-Dawley rats; details: single dose 1 mg/ml
Description: as §1, with “4.” for “5.”, “intravenously either via a jugular vein or tail vein catheter.” for “subcutaneously into the intra-scapular region of the animal.”, “1.5” for “1.51”, “mixing,” for “mixing”, “analysis.” for “analysis. Meso Scale Discovery (MSD) ELISA was undertaken to assay for the concentration of the GLP-2 peptibodies.”

[3] = biological target: T1, hFcRn (extracellular domain of the FcRN) (Homo sapiens, UniProt P55899); test: FcRn binding by surface plasmon resonance (Biacore)
T1 construct: made in house
Source text: Binding to the Fc neonatal receptor (FcRN) allows for recycling of the molecules and leads to an extended in vivo serum half-life of the Fc fusion proteins. Recycling occurs as the molecules are passively taken into the cells and the pH of the endosomes is lower. That leads to binding of the Fc portion of the molecule to the FcRN. When the FcRN recycles back to the surface of the cell, the pH is then neutral and the protein is released back into the serum.
Binding to the extracellular domain of the FcRN was measured by surface plasmon resonance (SPR) using a Biacore system. Direct immobilization with FcRn was achieved via amine coupling of a CM5 chip with FcRn under the following conditions: • i) hFcRn (expressed and purified in house) is diluted in Acetate buffer pH 5.0 to 5 μg/mL. • ii) Immobilize 5 μg/mL of FcRn with target of 500 RU on CM5 chip in PBS pH 7.0 • iii) Final response 454 RU • iv) Running buffer: PBS-P+, pHed to 5.5
The kinetic binding study was done using the following protocol. Samples were diluted in PBS-P+ to 50, 25, 12.5, 6.25, 3.125, 1.56, 0.78, 0.39, 0 nM. The parameters were set as follows: • i) Association and Dissociation 300 s at Flow rate 30 μL/min • ii) Regeneration with 25 mM Tris, 150 mM NaCl pH 8.0 40 s at 60 μL/min
A measurement of the binding of the GLP-2 peptibodies to the Fc neonatal receptor (FcRN) was undertaken at pH 5.5 and pH 7.4.

[4] = NanoDSF melting temperature / thermal stability; format: physicochemical; details: for NanoDSF melting temperature 1: first transition; for NanoDSF melting temperature 2: second transition
Description: Each of the GLP-2 peptibodies was tested by determining melting temperature with nanodifferential scanning fluorimetry (NanoDSF). NanoDSF is a measurement of protein stability over a range of temperatures, with a temperature ramp employed. The stability of tryptophan is measured by fluorescence, as reflected in a ratio of fluorescence at 350 nm to fluorescence at 330 nm. From the assay, one or more melting temperatures are determined. Because a protein in a certain state is understood to have a melting temperature, the number of melting temperatures observed reflects the number of different states.
(§2) Stability analysis was then performed using SEC-MALS and NanoDSF. For SEC-MALS, a Sepax Zenix C-150 column was used. The mobile phase buffer was 1× PBS with a final concentration of 400 mM NaCl. The flow rate was 0.8 mL per minute. 20 micrograms of total protein was injected. For NanoDSF, 10 microliters of sample was used, without normalization of the samples.
as §2

[5] = SEC-MALS (Sepax Zenix C-150) peak distribution; format: physicochemical
Description: A SEC-MALS assay was performed to determine the primary state (main peak) and its molecular weight. […] The GLP-2 peptibody O (albumin fusion) eluted at a molecular weight indicative of a monomer.
as §2, §2

[6] = Table 7 (Example 6), 0.5 mg/mL sample
[7] = Table 7 (Example 6), 1.5 mg/mL sample
[8] = Table 7 (Example 6), 5 mg/mL sample
[9] = Table 7 (Example 6), 7.5 mg/mL sample

T1 sequence (P55899 24-297 limits assumed): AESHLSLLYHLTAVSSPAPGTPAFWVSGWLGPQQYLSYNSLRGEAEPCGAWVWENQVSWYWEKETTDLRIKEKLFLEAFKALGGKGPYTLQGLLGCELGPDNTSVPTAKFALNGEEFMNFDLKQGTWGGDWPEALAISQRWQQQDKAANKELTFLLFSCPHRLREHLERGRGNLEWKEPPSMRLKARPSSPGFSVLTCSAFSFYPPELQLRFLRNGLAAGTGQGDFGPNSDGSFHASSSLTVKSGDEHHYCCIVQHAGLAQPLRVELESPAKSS
T1 sequence (P61769 21-119 partner): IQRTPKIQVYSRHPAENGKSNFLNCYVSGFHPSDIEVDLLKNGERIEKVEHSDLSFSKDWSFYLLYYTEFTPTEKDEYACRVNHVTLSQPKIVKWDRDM

Compound: CC[C@H](C)[C@H](NC(=O)[C@H](Cc1ccccc1)NC(=O)[C@H](CC(=O)O)NC(=O)[C@H](CCCNC(=N)N)NC(=O)[C@H](C)NC(=O)[C@H](C)NC(=O)[C@H](CC(C)C)NC(=O)[C@H](CC(N)=O)NC(=O)[C@H](CC(=O)O)NC(=O)[C@H](CC(C)C)NC(=O)[C@@H](NC(=O)[C@@H](NC(=O)[C@H](CC(N)=O)NC(=O)[C@H](CCSC)NC(=O)[C@H](CCC(=O)O)NC(=O)[C@H](CC(=O)O)NC(=O)[C@H](CO)NC(=O)[C@H](Cc1ccccc1)NC(=O)[C@H](CO)NC(=O)CNC(=O)[C@H](CC(=O)O)NC(=O)CNC(=O)[C@@H](N)Cc1c[nH]cn1)[C@@H](C)O)[C@@H](C)CC)C(=O)N[C@@H](CC(N)=O)C(=O)N[C@@H](Cc1c[nH]c2ccccc12)C(=O)N[C@@H](CC(C)C)C(=O)N[C@H](C(=O)N[C@@H](CCC(N)=O)C(=O)N[C@H](C(=O)N[C@@H](CCCCN)C(=O)N[C@H](C(=O)N[C@H](C(=O)N[C@@H](CC(=O)O)C(=O)O)[C@@H](C)O)[C@@H](C)CC)[C@@H](C)O)[C@@H](C)CC [Gattex]
- CL [1]: 51,649 mL/day/kg
- Vc [1]: 1,794 mL/kg
- clearance ([2]; male, Sprague-Dawley, plasma): 1390 mL/h/kg
- Vc [2]: 2,235 mL/kg

Compound: GLP-2 peptibody A: GLP-2[A2G] fused without linker to IgG1 Fc (LALA); SEQ ID NO: 13
- Kd ([3]; pH 5.5): 1.38 nM
- FcRN KD at pH 7.4 [3]: No binding in range tested.
- CL [1]: 70.7 mL/day/kg
- Q [1]: 3.25 mL/h/kg
- Vc [1]: 109 mL/kg
- Vt [1]: 0.081 L/kg
- ka [1]: A (0.45 ka/day,
- NanoDSF melting temperature 1 [4]: 1 = 67.0 °C
- NanoDSF melting temperature 2 [4]: 2 = 80 °C
- CL [2]: 2.37 mL/h/kg
- Q [2]: 2.42 mL/h/kg
- Vc [2]: 43 mL/kg
- Vt [2]: 0.079 L/kg

Compound: GLP-2 peptibody B264: GLP-2[A2G]-GGGGG linker-IgG1 Fc (LALA) without C-terminal lysine; SEQ ID NO: 1
- SEC LMW ([5]; Table 6, 0.5 mg/mL sample): 17.2% LMW
- SEC Main Peak ([5]; Table 6, 0.5 mg/mL sample): 82.8% Main Peak
- SEC HMW ([5]; Table 6, 1.5 mg/mL sample): 2.1% HMW
- SEC LMW ([5]; Table 6, 1.5 mg/mL sample): 20.8% LMW
- SEC Main Peak ([5]; Table 6, 1.5 mg/mL sample): 77.2% Main Peak
- SEC HMW ([5]; Table 6, 5 mg/mL sample): 2% HMW
- SEC LMW ([5]; Table 6, 5 mg/mL sample): 20.1% LMW
- SEC Main Peak ([5]; Table 6, 5 mg/mL sample): 77.9% Main Peak
- SEC HMW ([5]; Table 6, 11 mg/mL sample): 2.1% HMW
- SEC LMW ([5]; Table 6, 11 mg/mL sample): 17.4% LMW
- SEC Main Peak ([5]; Table 6, 11 mg/mL sample): 80.5% Main Peak
- SEC HMW [5, 6]: 2.9% HMW
- SEC LMW [5, 6]: 19.7% LMW
- SEC Main Peak [5, 6]: 77.4% Main Peak
- SEC LMW [5, 7]: 21.4% LMW
- SEC Main Peak [5, 7]: 78.6% Main Peak
- SEC LMW [5, 8]: 20.8% LMW
- SEC Main Peak [5, 8]: 79.2% Main Peak
- SEC LMW [5, 9]: 19.9% LMW
- SEC Main Peak [5, 9]: 80% Main Peak
- Thermal Stability (NanoDSF) 1 ([4]; Table 6, 0.5 mg/mL sample): 1 = 67.1 °C
- Thermal Stability (NanoDSF) 2 ([4]; Table 6, 0.5 mg/mL sample): 2 = 75.2 °C
- Thermal Stability (NanoDSF) 1 ([4]; Table 6, 1.5 mg/mL sample): 1 = 67.0 °C
- Thermal Stability (NanoDSF) 2 ([4]; Table 6, 1.5 mg/mL sample): 2 = 74.8 °C
- Thermal Stability (NanoDSF) 1 ([4]; Table 6, 5 mg/mL sample): 1 = 67.2 °C
- Thermal Stability (NanoDSF) 2 ([4]; Table 6, 5 mg/mL sample): 2 = 75.0 °C
- Thermal Stability (NanoDSF) 1 ([4]; Table 6, 11 mg/mL sample): 1 = 67.5 °C
- Thermal Stability (NanoDSF) 2 ([4]; Table 6, 11 mg/mL sample): 2 = 74.7 °C
- Thermal Stability (NanoDSF) 1 [4, 6]: 1 = 67.6 °C
- Thermal Stability (NanoDSF) 2 [4, 6]: 2 = 80.2 °C
- Thermal Stability (NanoDSF) 1 [4, 7]: 1 = 67.6 °C
- Thermal Stability (NanoDSF) 2 [4, 7]: 2 = 80.2 °C
- Thermal Stability (NanoDSF) 1 [4, 8]: 1 = 67.7 °C
- Thermal Stability (NanoDSF) 2 [4, 8]: 2 = 80.7 °C
- Thermal Stability (NanoDSF) 1 [4, 9]: 1 = 67.8 °C
- Thermal Stability (NanoDSF) 2 [4, 9]: 2 = 80.4 °C

Compound: GLP-2 peptibody L: GLP-2[A2G]-GGGGGGG linker-IgG1 Fc (LALA); SEQ ID NO: 22
- SEC-MALS Zenix C-150 main peak [5]: 87.4% main peak, 148,000 g/mol
- Kd ([3]; pH 5.5): 1.72 nM
- FcRN KD at pH 7.4 [3]: No binding in range tested.
- CL [1]: 80.6 mL/day/kg
- Vc [1]: 127 mL/kg
- ka [1]: L (0.63 ka/day,
- NanoDSF melting temperature 1 [4]: 1 = 67.5 °C
- NanoDSF melting temperature 2 [4]: 2 = 80 °C
- CL [2]: 2.8 mL/h/kg
- Q [2]: 0.792 mL/h/kg
- Vc [2]: 37.8 mL/kg
- Vt [2]: 0.538 L/kg

Compound: GLP-2 peptibody M: GLP-2[A2G]-GGGGSGGGGS linker-IgG1 Fc (LALA); SEQ ID NO: 25
- SEC-MALS Zenix C-150 main peak [5]: 81.4% main peak, 148,500 g/mol
- Kd ([3]; pH 5.5): 1.81 nM
- FcRN KD at pH 7.4 [3]: No binding in range tested.
- CL [1]: 60.2 mL/day/kg
- Vc [1]: 91.5 mL/kg
- ka [1]: M (0.78 ka/day,
- NanoDSF melting temperature 1 [4]: 1 = 67.3 °C
- NanoDSF melting temperature 2 [4]: 2 = 79.9 °C
- CL [2]: 1.6 mL/h/kg
- Q [2]: 7.62 mL/h/kg
- Vc [2]: 12 mL/kg
- Vt [2]: 0.0294 L/kg

Compound: GLP-2 peptibody O: fusion protein between GLP-2, a linker, and amino acids 25-609 of human serum albumin; SEQ ID NO: 28
- SEC-MALS Zenix C-150 main peak [5]: 89.5% main peak, 76,500 g/mol
- FcRN KD at pH 5.5 ([3]; pH 5.5): substantially higher KD
- Kd ([3]; pH 5.5): 1370 nM
- FcRN KD at pH 7.4 [3]: No binding in range tested.
- CL [1]: 742 mL/day/kg
- Vc [1]: 565 mL/kg
- ka [1]: O (1.26 ka/day,
- NanoDSF melting temperature 1 [4]: 1 = 57.6 °C
- CL [2]: 5.42 mL/h/kg
- Q [2]: 57.5 mL/h/kg
- Vc [2]: 43.2 mL/kg
- Vt [2]: 0.054 L/kg

Compound: GLP-2 peptibody P: fusion of GLP-2, a linker that is also a GLP-2 sequence, and human serum albumin 25-609; SEQ ID NO: 30
- CL [2]: 7.08 mL/h/kg
- Q [2]: 29.5 mL/h/kg
- Vc [2]: 38.4 mL/kg
- Vt [2]: 0.0439 L/kg
